Patent US20150344570A1 (published 2015)

Key:
[1] = target: T1, FcγRIIa R (human, UniProt P12318 34-217); test: SPR (Biacore); He/Con_2aR divided by He/Con_2b (FcγRIIa R over FcγRIIb)
T1 construct: extracellular domain; also called FcgRIIa R type; 2aR
T1 sequence (looked up): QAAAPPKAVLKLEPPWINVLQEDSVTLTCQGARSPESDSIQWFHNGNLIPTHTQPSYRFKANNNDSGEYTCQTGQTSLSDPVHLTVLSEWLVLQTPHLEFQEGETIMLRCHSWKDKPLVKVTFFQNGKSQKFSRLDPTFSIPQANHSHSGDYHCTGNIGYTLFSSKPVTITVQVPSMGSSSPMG

[2] = target: T1, FcγRIIa R; test: SPR (Biacore), captured antibody, FcγR as analyte; relative binding, control GpH7-A5/GpH7-B3/GpL16-k0 = 100
Description: (§1) The heterodimerized antibodies He Abs in which one of the H chains was introduced with an alteration were assayed for their binding activities to each activating FcγR and inhibitory FcγR according to the method described in Example 4. […] The activating FcγRs in FIGS. 26, 27, 28, and 29 are FcγRIa, FcγRIIa (R), FcγRIIa (H), and FcγRIIIa, respectively.
(§2) Analysis of interaction between objective antibody and the FcγR was carried out using Biacore T100 (GE Healthcare). HBS-EP+ (GE Healthcare) was used as the running buffer, and the measurement temperature was set to 25° C. Chips produced by immobilizing the antigen peptide by the amine coupling method to a Series S Sencor Chip CM5 (GE Healthcare), or alternatively, chips produced by allowing preliminarily biotinylated antigen peptides to interact with and immobilize onto a Series S Sensor Chip SA (certified) (GE Healthcare) were used. Antibodies of interest were captured onto an antigen peptide-immobilized chip, and allowed to interact to each FcγR diluted with running buffer. To regenerate and repeatedly use the chip, the antibodies captured on the chip were washed off by reacting 10 mM glycine-HCl, pH 1.5.

[3] = target: T2, FcγRIIb (human, UniProt P31994 43-217); test: as above
T2 construct: extracellular domain; also called FcgRIIb; 2b
T2 sequence (looked up): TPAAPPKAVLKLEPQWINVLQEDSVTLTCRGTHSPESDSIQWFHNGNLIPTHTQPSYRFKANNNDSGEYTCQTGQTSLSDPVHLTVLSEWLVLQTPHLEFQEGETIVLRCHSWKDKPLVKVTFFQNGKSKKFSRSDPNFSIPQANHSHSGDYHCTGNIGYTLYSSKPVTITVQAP
Description: as §1, §2

[4] = target: T3, FcγRIa (human, UniProt P12314 16-292); test: SPR (Biacore), captured antibody, FcγRIa analyte; relative to GpH7-B3/GpL16-k0
T3 construct: extracellular domain; soluble His-tagged extracellular domain expressed in FreeStyle293 cells, used as analyte in Biacore; also called FcgRI; CD64
T3 sequence (P12314 16-292): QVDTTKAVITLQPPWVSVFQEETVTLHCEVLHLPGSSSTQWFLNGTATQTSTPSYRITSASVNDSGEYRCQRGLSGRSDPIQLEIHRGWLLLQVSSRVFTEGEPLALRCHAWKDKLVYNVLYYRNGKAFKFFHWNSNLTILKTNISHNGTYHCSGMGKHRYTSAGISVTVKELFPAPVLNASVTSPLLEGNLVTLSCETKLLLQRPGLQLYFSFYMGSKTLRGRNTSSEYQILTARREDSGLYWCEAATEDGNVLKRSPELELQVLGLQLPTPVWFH

B1: GpH7-A5/GpH7-B3 variant Q295_03V/GpL16-k0 (antibody, human IgG1, kappa)
heavy 1: not shown
heavy 2: not shown
light: DIVMTQSPLSLPVTPGEPASISCQASESLVHSNRNTYLHWYLQKPGQSPQLLIYKVSNRFSGVPDRFSGSGSGTDFTLKISRVEAEDVGVYYCSQNTHVPPTFGQGTKVEIERTVAAPSVFIFPPSDEQLKSGTASVVCLLNNFYPREAKVQWKVDNALQSGNSQESVTEQDSKDSTYSLSSTLTLSKADYEKHKVYACEVTHQGLSSPVTKSFNRGEC
notes: heterodimerized anti-glypican-3 IgG1; alteration in one H chain only; also called He Ab
[1]
  He_2aR/2b (IIaR/IIb): 1.2 ratio
[2]
  He/Con_2aR: 91.2 control = 100
[3]
  He/Con_2b: 75.7 control = 100

B2: GpH7-B3 variant T335_04F/GpL16-k0 (antibody, human IgG1, kappa)
heavy: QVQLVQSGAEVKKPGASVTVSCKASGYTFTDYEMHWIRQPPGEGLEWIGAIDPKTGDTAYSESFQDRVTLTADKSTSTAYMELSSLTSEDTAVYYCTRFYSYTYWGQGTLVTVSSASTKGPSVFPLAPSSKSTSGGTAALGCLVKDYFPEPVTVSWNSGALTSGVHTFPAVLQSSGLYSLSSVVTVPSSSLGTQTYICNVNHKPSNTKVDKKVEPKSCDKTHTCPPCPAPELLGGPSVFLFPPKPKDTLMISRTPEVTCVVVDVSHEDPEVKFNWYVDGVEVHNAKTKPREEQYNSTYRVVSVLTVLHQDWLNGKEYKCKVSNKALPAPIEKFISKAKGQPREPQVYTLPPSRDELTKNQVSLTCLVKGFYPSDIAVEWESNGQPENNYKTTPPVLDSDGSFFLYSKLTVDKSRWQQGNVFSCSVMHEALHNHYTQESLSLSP
light: B1 light
notes: homodimerized IgG1, mutation in both H chains; also called Ho Ab
[4]
  Ho/Con_1a: 105 relative, control = 100

B3: GpH7-A5/GpH7-B3 variant Y296_01G/GpL16-k0 (antibody, human IgG1, kappa)
heavy 1: not shown
heavy 2: not shown
light: B1 light
notes: as for B1
[1]
  He_2aR/2b (IIaR/IIb): 1.21 ratio
[2]
  He/Con_2aR: 95.8 control = 100
[3]
  He/Con_2b: 79.3 control = 100

B4: GpH7-A5/GpH7-B3 variant S298_04F/GpL16-k0 (antibody, human IgG1, kappa)
heavy 1: not shown
heavy 2: not shown
light: B1 light
notes: as for B1
[1]
  He_2aR/2b (IIaR/IIb): 1.29 ratio
[2]
  He/Con_2aR: 84 control = 100
[3]
  He/Con_2b: 65.4 control = 100

B5: GpH7-B3 variant A330_10E/GpL16-k0 (antibody, human IgG1, kappa)
heavy: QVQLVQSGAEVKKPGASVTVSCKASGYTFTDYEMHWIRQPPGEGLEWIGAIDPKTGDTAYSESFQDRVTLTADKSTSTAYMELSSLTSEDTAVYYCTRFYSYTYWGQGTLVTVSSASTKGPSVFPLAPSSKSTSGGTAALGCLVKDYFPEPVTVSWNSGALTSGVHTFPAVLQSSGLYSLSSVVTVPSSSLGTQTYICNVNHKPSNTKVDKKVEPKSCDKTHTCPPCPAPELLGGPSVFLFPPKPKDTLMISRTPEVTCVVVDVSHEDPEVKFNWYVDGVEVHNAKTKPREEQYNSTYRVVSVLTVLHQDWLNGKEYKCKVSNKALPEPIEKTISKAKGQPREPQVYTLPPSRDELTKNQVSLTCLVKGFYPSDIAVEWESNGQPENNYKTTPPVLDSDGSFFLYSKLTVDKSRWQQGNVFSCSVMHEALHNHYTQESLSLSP
light: B1 light
notes: as for B2
[4]
  Ho/Con_1a: 108 relative, control = 100

B6: GpH7-A5/GpH7-B3 variant S298_02A/GpL16-k0 (antibody, human IgG1, kappa)
heavy 1: not shown
heavy 2: not shown
light: B1 light
notes: heterodimerized anti-glypican-3 IgG1; alteration in one H chain only; also called He Ab; GpH7-A5/GpH7-B3-15-02A/GpL16-k0
[1]
  He_2aR/2b (IIaR/IIb): 1.24 ratio
[2]
  He/Con_2aR: 91.2 control = 100
[3]
  He/Con_2b: 73.4 control = 100

B7: GpH7-A5/GpH7-B3 variant V266_16H/GpL16-k0 (antibody, human IgG1, kappa)
heavy 1: not shown
heavy 2: not shown
light: B1 light
notes: as for B1
[1]
  He_2aR/2b (IIaR/IIb): 1.34 ratio
[2]
  He/Con_2aR: 76.5 control = 100
[3]
  He/Con_2b: 57.2 control = 100

B8: GpH7-A5/GpH7-B3 variant Q295_04F/GpL16-k0 (antibody, human IgG1, kappa)
heavy 1: not shown
heavy 2: not shown
light: B1 light
notes: as for B1
[1]
  He_2aR/2b (IIaR/IIb): 1.29 ratio
[2]
  He/Con_2aR: 83.6 control = 100
[3]
  He/Con_2b: 64.7 control = 100

B9: GpH7-B3 variant A330_01G/GpL16-k0 (antibody, human IgG1, kappa)
heavy: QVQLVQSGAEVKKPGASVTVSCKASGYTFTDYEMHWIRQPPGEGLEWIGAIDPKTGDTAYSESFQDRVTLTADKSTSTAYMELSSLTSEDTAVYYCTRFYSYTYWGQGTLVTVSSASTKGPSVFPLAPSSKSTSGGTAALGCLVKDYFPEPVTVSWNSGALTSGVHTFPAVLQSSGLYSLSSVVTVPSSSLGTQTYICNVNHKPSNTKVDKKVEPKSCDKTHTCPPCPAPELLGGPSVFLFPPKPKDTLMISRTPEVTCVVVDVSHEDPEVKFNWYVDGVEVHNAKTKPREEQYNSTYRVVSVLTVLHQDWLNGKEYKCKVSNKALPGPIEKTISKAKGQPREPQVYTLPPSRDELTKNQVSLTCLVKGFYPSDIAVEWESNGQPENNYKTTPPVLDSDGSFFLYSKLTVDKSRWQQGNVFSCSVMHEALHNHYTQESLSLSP
light: B1 light
notes: as for B2
[4]
  Ho/Con_1a: 106 relative, control = 100

B10: GpH7-B3 variant A330_04F/GpL16-k0 (antibody, human IgG1, kappa)
heavy: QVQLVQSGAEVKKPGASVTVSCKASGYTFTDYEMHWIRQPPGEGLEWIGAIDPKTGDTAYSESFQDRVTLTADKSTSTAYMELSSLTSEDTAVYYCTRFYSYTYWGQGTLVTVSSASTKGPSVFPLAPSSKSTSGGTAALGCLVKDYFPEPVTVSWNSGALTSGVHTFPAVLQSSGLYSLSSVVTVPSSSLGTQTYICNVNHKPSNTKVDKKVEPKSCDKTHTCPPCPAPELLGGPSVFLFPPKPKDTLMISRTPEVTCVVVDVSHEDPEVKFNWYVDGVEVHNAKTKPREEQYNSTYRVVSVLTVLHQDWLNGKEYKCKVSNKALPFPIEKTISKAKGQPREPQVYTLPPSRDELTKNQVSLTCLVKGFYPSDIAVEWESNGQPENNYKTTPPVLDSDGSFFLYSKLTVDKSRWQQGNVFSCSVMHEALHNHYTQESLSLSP
light: B1 light
notes: as for B2
[4]
  Ho/Con_1a: 107 relative, control = 100

B11: GpH7-A5/GpH7-B3 variant Q295_18N/GpL16-k0 (antibody, human IgG1, kappa)
heavy 1: not shown
heavy 2: not shown
light: B1 light
notes: as for B1
[1]
  He_2aR/2b (IIaR/IIb): 1.27 ratio
[2]
  He/Con_2aR: 82.4 control = 100
[3]
  He/Con_2b: 64.9 control = 100

B12: GpH7-B3 variant A330_19Q/GpL16-k0 (antibody, human IgG1, kappa)
heavy: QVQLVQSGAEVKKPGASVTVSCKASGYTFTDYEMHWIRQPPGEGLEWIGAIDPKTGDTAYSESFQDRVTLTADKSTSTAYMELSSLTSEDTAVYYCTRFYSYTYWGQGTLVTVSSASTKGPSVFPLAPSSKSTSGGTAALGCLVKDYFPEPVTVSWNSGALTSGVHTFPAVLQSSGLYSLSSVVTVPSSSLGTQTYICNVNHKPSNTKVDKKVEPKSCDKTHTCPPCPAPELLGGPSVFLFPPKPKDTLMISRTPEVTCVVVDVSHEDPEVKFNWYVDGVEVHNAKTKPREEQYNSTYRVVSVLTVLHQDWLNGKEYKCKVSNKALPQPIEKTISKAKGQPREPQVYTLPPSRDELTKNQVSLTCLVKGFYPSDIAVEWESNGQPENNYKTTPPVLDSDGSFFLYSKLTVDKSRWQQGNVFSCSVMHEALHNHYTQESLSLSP
light: B1 light
notes: as for B2
[4]
  Ho/Con_1a: 106 relative, control = 100

B13: GpH7-A5/GpH7-B3 variant Q295_05P/GpL16-k0 (antibody, human IgG1, kappa)
heavy 1: not shown
heavy 2: not shown
light: B1 light
notes: as for B1
[1]
  He_2aR/2b (IIaR/IIb): 1.3 ratio
[2]
  He/Con_2aR: 87.4 control = 100
[3]
  He/Con_2b: 67.5 control = 100

B14: GpH7-B3 variant H268_01G/GpL16-k0 (antibody, human IgG1, kappa)
heavy: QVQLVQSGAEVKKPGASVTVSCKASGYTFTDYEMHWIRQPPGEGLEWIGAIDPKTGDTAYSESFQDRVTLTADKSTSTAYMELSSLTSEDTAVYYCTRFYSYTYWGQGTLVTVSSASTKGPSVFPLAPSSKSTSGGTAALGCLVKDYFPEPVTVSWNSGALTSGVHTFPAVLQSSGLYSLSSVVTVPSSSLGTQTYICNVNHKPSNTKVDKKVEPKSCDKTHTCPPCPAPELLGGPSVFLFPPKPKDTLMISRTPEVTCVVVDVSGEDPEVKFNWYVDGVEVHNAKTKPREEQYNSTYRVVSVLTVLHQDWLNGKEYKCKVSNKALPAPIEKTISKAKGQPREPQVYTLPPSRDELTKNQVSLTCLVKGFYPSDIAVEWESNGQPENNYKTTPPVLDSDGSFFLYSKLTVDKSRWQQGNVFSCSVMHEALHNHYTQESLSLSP
light: B1 light
notes: as for B2
[4]
  Ho/Con_1a: 108 relative, control = 100

B15: GpH7-A5/GpH7-B3 variant Y296_05P/GpL16-k0 (antibody, human IgG1, kappa)
heavy 1: not shown
heavy 2: not shown
light: B1 light
notes: as for B1
[1]
  He_2aR/2b (IIaR/IIb): 1.3 ratio
[2]
  He/Con_2aR: 47.7 control = 100
[3]
  He/Con_2b: 36.6 control = 100

B16: GpH7-A5/GpH7-B3 variant Q295_16H/GpL16-k0 (antibody, human IgG1, kappa)
heavy 1: not shown
heavy 2: not shown
light: B1 light
notes: as for B1
[1]
  He_2aR/2b (IIaR/IIb): 1.3 ratio
[2]
  He/Con_2aR: 81.3 control = 100
[3]
  He/Con_2b: 62.7 control = 100

B17: GpH7-A5/GpH7-B3 variant S298_03V/GpL16-k0 (antibody, human IgG1, kappa)
heavy 1: not shown
heavy 2: not shown
light: B1 light
notes: as for B1
[1]
  He_2aR/2b (IIaR/IIb): 1.34 ratio
[2]
  He/Con_2aR: 86.3 control = 100
[3]
  He/Con_2b: 64.5 control = 100

B18: GpH7-A5/GpH7-B3 variant Y296_03V/GpL16-k0 (antibody, human IgG1, kappa)
heavy 1: not shown
heavy 2: not shown
light: B1 light
notes: as for B1
[1]
  He_2aR/2b (IIaR/IIb): 1.21 ratio
[2]
  He/Con_2aR: 96.2 control = 100
[3]
  He/Con_2b: 79.3 control = 100

B19: GpH7-B3 variant D265_10E/GpL16-k0 (antibody, human IgG1, kappa)
heavy: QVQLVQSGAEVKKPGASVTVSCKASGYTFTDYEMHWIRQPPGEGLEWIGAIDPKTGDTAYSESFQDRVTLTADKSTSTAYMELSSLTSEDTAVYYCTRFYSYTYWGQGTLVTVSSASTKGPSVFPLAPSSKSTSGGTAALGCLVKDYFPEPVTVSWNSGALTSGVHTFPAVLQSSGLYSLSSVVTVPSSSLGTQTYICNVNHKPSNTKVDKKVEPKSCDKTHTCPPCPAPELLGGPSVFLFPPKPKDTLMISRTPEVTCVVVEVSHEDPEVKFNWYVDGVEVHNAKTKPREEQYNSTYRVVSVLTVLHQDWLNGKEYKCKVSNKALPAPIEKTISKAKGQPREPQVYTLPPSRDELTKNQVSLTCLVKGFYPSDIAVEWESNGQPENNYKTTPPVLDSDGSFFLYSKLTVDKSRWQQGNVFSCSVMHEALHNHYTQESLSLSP
light: B1 light
notes: as for B2
[4]
  Ho/Con_1a: 103 relative, control = 100

B20: GpH7-A5/GpH7-B3 variant Q295_15Y/GpL16-k0 (antibody, human IgG1, kappa)
heavy 1: not shown
heavy 2: not shown
light: B1 light
notes: as for B1
[1]
  He_2aR/2b (IIaR/IIb): 1.27 ratio
[2]
  He/Con_2aR: 82.8 control = 100
[3]
  He/Con_2b: 65.4 control = 100

B21: GpH7-A5/GpH7-B3 variant Q295_12R/GpL16-k0 (antibody, human IgG1, kappa)
heavy 1: not shown
heavy 2: not shown
light: B1 light
notes: as for B1
[1]
  He_2aR/2b (IIaR/IIb): 1.27 ratio
[2]
  He/Con_2aR: 83 control = 100
[3]
  He/Con_2b: 65.2 control = 100

B22: GpH7-A5/GpH7-B3 variant Q295_13S/GpL16-k0 (antibody, human IgG1, kappa)
heavy 1: not shown
heavy 2: not shown
light: B1 light
notes: as for B1
[1]
  He_2aR/2b (IIaR/IIb): 1.3 ratio
[2]
  He/Con_2aR: 73.7 control = 100
[3]
  He/Con_2b: 56.9 control = 100

B23: GpH7-A5/GpH7-B3 variant Y296_11K/GpL16-k0 (antibody, human IgG1, kappa)
heavy 1: not shown
heavy 2: not shown
light: B1 light
notes: as for B1
[1]
  He_2aR/2b (IIaR/IIb): 1.3 ratio
[2]
  He/Con_2aR: 94.3 control = 100
[3]
  He/Con_2b: 72.8 control = 100

B24: GpH7-B3 variant H268_10E/GpL16-k0 (antibody, human IgG1, kappa)
heavy: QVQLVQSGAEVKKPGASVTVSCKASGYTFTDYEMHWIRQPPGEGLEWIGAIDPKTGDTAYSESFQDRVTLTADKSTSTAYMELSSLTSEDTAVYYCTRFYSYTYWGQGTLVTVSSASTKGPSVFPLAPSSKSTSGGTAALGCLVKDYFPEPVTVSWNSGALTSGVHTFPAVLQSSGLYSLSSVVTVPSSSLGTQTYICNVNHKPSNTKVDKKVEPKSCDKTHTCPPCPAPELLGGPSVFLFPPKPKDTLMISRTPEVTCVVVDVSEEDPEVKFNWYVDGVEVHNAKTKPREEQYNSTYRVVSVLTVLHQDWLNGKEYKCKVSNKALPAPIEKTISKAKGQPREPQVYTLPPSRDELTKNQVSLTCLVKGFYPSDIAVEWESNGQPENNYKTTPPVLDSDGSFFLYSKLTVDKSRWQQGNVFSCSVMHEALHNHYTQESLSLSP
light: B1 light
notes: as for B2
[4]
  Ho/Con_1a: 112 relative, control = 100

B25: GpH7-B3 variant H268_09D/GpL16-k0 (antibody, human IgG1, kappa)
heavy: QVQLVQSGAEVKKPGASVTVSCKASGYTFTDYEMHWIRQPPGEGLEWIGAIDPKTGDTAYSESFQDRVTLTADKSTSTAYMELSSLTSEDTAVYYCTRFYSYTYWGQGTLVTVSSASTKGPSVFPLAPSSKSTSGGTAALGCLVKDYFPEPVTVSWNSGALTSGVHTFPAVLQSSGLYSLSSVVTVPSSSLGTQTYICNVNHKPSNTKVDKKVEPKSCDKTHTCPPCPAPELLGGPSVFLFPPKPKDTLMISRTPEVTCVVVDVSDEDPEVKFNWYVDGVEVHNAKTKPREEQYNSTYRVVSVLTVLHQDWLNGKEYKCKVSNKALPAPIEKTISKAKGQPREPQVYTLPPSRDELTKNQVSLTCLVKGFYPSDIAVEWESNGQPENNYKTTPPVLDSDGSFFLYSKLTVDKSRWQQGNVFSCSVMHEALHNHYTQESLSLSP
light: B1 light
notes: as for B2
[4]
  Ho/Con_1a: 110 relative, control = 100

B26: GpH7-A5/GpH7-B3 variant S298_05P/GpL16-k0 (antibody, human IgG1, kappa)
heavy 1: not shown
heavy 2: not shown
light: B1 light
notes: as for B1
[1]
  He_2aR/2b (IIaR/IIb): 1.34 ratio
[2]
  He/Con_2aR: 16 control = 100
[3]
  He/Con_2b: 11.9 control = 100

B27: GpH7-A5/GpH7-B3 variant S298_01G/GpL16-k0 (antibody, human IgG1, kappa)
heavy 1: not shown
heavy 2: not shown
light: B1 light
notes: as for B1
[1]
  He_2aR/2b (IIaR/IIb): 1.23 ratio
[2]
  He/Con_2aR: 98.8 control = 100
[3]
  He/Con_2b: 80.1 control = 100

B28: GpH7-A5/GpH7-B3 variant Q295_11K/GpL16-k0 (antibody, human IgG1, kappa)
heavy 1: not shown
heavy 2: not shown
light: B1 light
notes: as for B1
[1]
  He_2aR/2b (IIaR/IIb): 1.26 ratio
[2]
  He/Con_2aR: 88.9 control = 100
[3]
  He/Con_2b: 70.4 control = 100

B29: GpH7-A5/GpH7-B3 variant Y296_12R/GpL16-k0 (antibody, human IgG1, kappa)
heavy 1: not shown
heavy 2: not shown
light: B1 light
notes: as for B1
[1]
  He_2aR/2b (IIaR/IIb): 1.25 ratio
[2]
  He/Con_2aR: 99.6 control = 100
[3]
  He/Con_2b: 79.5 control = 100

B30: GpH7-B3 variant A330_20W/GpL16-k0 (antibody, human IgG1, kappa)
heavy: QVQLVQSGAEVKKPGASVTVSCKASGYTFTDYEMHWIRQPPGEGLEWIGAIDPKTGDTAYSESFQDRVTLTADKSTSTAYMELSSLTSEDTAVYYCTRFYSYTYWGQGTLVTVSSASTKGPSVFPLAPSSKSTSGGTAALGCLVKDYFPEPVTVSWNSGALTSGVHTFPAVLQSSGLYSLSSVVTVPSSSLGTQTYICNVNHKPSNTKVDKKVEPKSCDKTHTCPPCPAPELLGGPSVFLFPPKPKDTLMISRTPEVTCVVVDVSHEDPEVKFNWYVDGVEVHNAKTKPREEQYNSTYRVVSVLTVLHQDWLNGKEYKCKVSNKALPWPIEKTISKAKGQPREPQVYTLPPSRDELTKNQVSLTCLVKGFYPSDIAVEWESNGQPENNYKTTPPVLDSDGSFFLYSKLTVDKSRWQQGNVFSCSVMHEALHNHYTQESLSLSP
light: B1 light
notes: as for B2
[4]
  Ho/Con_1a: 108 relative, control = 100

B31: GpH7-A5/GpH7-B3 variant Q295_20W/GpL16-k0 (antibody, human IgG1, kappa)
heavy 1: not shown
heavy 2: not shown
light: B1 light
notes: as for B1
[1]
  He_2aR/2b (IIaR/IIb): 1.35 ratio
[2]
  He/Con_2aR: 60 control = 100
[3]
  He/Con_2b: 44.4 control = 100

B32: GpH7-A5/GpH7-B3 variant S298_07I/GpL16-k0 (antibody, human IgG1, kappa)
heavy 1: not shown
heavy 2: not shown
light: B1 light
notes: as for B1
[1]
  He_2aR/2b (IIaR/IIb): 1.28 ratio
[2]
  He/Con_2aR: 90.1 control = 100
[3]
  He/Con_2b: 70.6 control = 100

B33: GpH7-B3 variant H268_13S/GpL16-k0 (antibody, human IgG1, kappa)
heavy: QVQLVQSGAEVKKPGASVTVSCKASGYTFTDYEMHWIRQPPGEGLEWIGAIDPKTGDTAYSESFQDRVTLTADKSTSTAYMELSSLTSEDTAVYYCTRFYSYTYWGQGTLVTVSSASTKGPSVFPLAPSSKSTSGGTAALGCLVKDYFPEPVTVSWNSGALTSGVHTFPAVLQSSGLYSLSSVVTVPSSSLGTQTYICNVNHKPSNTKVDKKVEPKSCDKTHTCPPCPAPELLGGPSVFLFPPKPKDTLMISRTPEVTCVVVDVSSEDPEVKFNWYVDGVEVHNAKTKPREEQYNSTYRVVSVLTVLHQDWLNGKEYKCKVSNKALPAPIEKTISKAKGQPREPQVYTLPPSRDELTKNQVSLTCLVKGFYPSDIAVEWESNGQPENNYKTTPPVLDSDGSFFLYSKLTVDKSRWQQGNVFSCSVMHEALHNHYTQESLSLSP
light: B1 light
notes: as for B2
[4]
  Ho/Con_1a: 110 relative, control = 100

B34: GpH7-A5/GpH7-B3 variant S298_09D/GpL16-k0 (antibody, human IgG1, kappa)
heavy 1: not shown
heavy 2: not shown
light: B1 light
notes: as for B1
[1]
  He_2aR/2b (IIaR/IIb): 1.4 ratio
[2]
  He/Con_2aR: 67.8 control = 100
[3]
  He/Con_2b: 48.3 control = 100
